{
  "source": "paper doi:10.1101/2021.03.08.434344",
  "about": "(bioRxiv, 2021)",
  "proteins": {"B1": {"name": "Homo sapiens ferritin (apoferritin) (natural protein, human, UniProt Q8TD27 1-165, looked up)", "chain": "MTTASTSQVRQNYHQDSEAAINRQINLELYASYVYLSMSYYFDRDDVALKNFAKYFLHQSHEEREHAEKLMKLQNQRGGRIFLQDIKKPDCDDWESGLNAMECALHLEKNVNQSLLEFPSPISPSPSCWHHYTTNRPQPQHHLLRPRRRKRPHSIPTPILIFRSP"}},
  "biological_target": "the molecule itself",
  "assay": "cryo-EM structure",
  "data": [
    {"protein": "B1", "values": [
      {"measurement": "binding result", "result": "binds"}
    ]}
  ]
}
